Where no end group is shown, it is not given here.
B1: nonapeptide AKKMKRRKA [SEQ ID NO: 137] (peptide)
peptide: AKKMKRRKA-NH2
notes: Synthetic; phage-selected heptapeptide with alanine added on both sides
B2: oligopeptide … (aa 75-98) [SEQ ID NO: 106] (peptide)
peptide: EDPPGEEDLPGEEDLPGEEDLPEV
B3: nonapeptide ASASAPVSA [SEQ ID NO: 139] (peptide)
peptide: ASASAPVSA-NH2
notes: as for B1
B4: nonapeptide AITFNAQYA [SEQ ID NO: 138] (peptide)
peptide: AITFNAQYA-NH2
notes: as for B1

Experiments:
[1] = target: T1, GST-MN fusion protein (MN glutathione S-transferase), expressed in bacteria from pGEX-3X-MN (human, UniProt Q16790 38-459); assay: phage display (Ph.D.-7): panning on wells coated with GST-MN, elution by acetazolamide, 3 rounds
[2] = target: T1, GST-MN fusion protein (MN glutathione …); assay: competition ELISA on immobilized GST-MN; competitor M75
[3] = target: T1, GST-MN fusion protein (MN glutathione …); assay: phage display panning on GST-MN, elution with acetazolamide
[4] = target: B2; assay: phage display (Ph.D.-7): panning on immobilized peptide SEQ ID NO: 106, elution with M75, 5 cycles
[5] = target: T2, monoclonal antibody M75 (MAb M75), secreted by hybridoma VU-M75, ATCC HB 11128; assay: competition ELISA (peptide against immobilized GST-MN for M75)
T2 construct: Mouse IgG; used as ascites fluid in the ELISA and in the cell adhesion tests; also called MAb 75

Row | Binder | binding result [2] | binding result [4] | further results
1 | GETRAPL [phage-displayed heptapeptide GETRAPL (SEQ ID NO: 107)] | – | – | binding result [1]: binds
2 | GETREPL [phage-displayed heptapeptide GETREPL (SEQ ID NO: 108)] | – | – | binding result [1]: binds
3 | B1 | binds | – | –
4 | GQTRSPL [phage-displayed heptapeptide GQTRSPL (SEQ ID NO: 109)] | – | – | binding result [3]: binds
5 | ITFNAQY | – | binds | –
6 | SASAPVS | – | binds | –
7 | B2 | – | – | IC50 [5]: 1 ng/mL
8 | B3 | binds | – | –
9 | B4 | binds | – | –
10 | KKMKRRK | – | binds | –

Reference: patent US7910549 (INSTITUTE OF VIROLOGY OF THE SLOVAK ACADEMY OF SCIENCES, dated 2011)
